This series concerns the molecule itself. Kind of series: thioflavin-T fluorescence of fibrillation + electron microscopy; 40 μM apo protein in 10 mM potassium phosphate, pH 7.0, with TCEP (0-10 mM) and 40 μM thioflavin-T, 37°C, agitated at 300 rpm in 96-well plates with a Teflon ball; fibrils seen by negative-stain EM.

B1: apo C6A/C111S human SOD1 (apo AS-SOD1) (enzyme)
chain: not shown
modifications: no N-terminal acetylation (expression in E. coli); metal-free (apo); C57-C146 disulfide intact at the start and reduced by TCEP in the reaction
notes: Cu/Zn superoxide dismutase 1 (SOD1), human, 153-residue subunit, both free cysteines removed (C6A, C111S); numbers count on: the mature protein (numbered from A1); The printed mass of AS S-S (15756.43 Da) appears to fit the 153-residue chain without Met and without acetyl; also called AS mutant; apo AS^S–S; source: E. coli, purified, demetallated by dialysis (apo)
Consider B1, for which the binding result is listed as “binds”.
